Consider 94 variants from the supplement of paper PMC10567573.

B1: TSN (parent)
chain: FLAAEQDIREEIRKVVQSLEQTAR
B2: PDS5B (parent)
chain: IYKKYALQSAAGKDAAKQIAWIKD
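Also: lentivirally expressed fusions sorted by FACS into six bins by GFP to DsRed ratio, PSI derived from sequencing read proportions per bin multiplied by bin number.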

The variants in the first data set derive from B1. Description: protein stability index of a GFP-peptide fusion (GPS, HEK-293T) (PSI 1-6); higher = more stable. Conditions: c terminus: a fixed tail appended.
Regarding FLAAEQDIREEIRKVVQSLEQTAF [R24F], the protein stability index turned out to be 2.07. On to FLAAEQDIREEIRKVVQSLEQTAT [R24T], for which the protein stability index was 2.08.

FLAAEQDIREEIRKVVQSLEQTAN [R24N]: the protein stability index came out at 2.21. The same measure, in the same setting: as for FLAAEQDIREEIRKVVQSLEQTAV [R24V], the figure is 1.7. In the case of FLAAEQDIREEIRKVVQSLEQTAD [R24D], the protein stability index amounted to 2.4. For the variant FLAAEQDIREEIRKVVQSLEQTAL [R24L], the protein stability index was 2.49. As to FLAAEQDIREEIRKVVQSLEQTAE [R24E], the protein stability index came to 2.13. On the same count and under the same terms, as for FLAAEQDIREEIRKVVQSLEQTAA [R24A], the figure is 2.26; as for FLAAEQDIREEIRKVVQSLEQTAW [R24W], 1.69; as for FLAAEQDIREEIRKVVQSLEQTAM [R24M], 2.68. Regarding FLAAEQDIREEIRKVVQSLEQTAQ [R24Q], the protein stability index came out at 1.74. Take FLAAEQDIREEIRKVVQSLEQTAP [R24P]: the protein stability index is 2.28.

On to FLAAEQDIREEIRKVVQSLEQTAY [R24Y], for which the protein stability index was determined as 1.94.

On to FLAAEQDIREEIRKVVQSLEQTAS [R24S], for which the protein stability index was 2.16. In the case of FLAAEQDIREEIRKVVQSLEQTAI [R24I], the protein stability index came out at 3.12. As for FLAAEQDIREEIRKVVQSLEQTAC [R24C], the protein stability index came out at 1.82.

For FLAAEQDIREEIRKVVQSLEQTAK [R24K], the protein stability index worked out at 1.7.

FLAAEQDIREEIRKVVQSLEQTAH [R24H]: the protein stability index amounted to 1.47.

Regarding FLAAEQDIREEIRKVVQSLEQTAG [R24G], the protein stability index amounted to 2.18. Regarding FLAAEQDIREEIRKVVQSLEQTRR [A23R], the protein stability index was found to be 1.87. On the same count and under the same terms, as for FLAAEQDIREEIRKVVQSLEQTNR [A23N], the figure is 1.8; as for FLAAEQDIREEIRKVVQSLEQTVR [A23V], 2.13. Turning to FLAAEQDIREEIRKVVQSLEQTTR [A23T], the protein stability index amounted to 1.76. For the variant FLAAEQDIREEIRKVVQSLEQTFR [A23F], the protein stability index is 2.19. For the variant FLAAEQDIREEIRKVVQSLEQTQR [A23Q], the protein stability index is 1.96.

As to FLAAEQDIREEIRKVVQSLEQTSR [A23S], the protein stability index is 1.8. Same read-out and setting: as for FLAAEQDIREEIRKVVQSLEQTDR [A23D], the figure is 1.57; as for FLAAEQDIREEIRKVVQSLEQTPR [A23P], 2.15. Regarding FLAAEQDIREEIRKVVQSLEQTMR [A23M], the protein stability index amounted to 1.87. In the case of FLAAEQDIREEIRKVVQSLEQTYR [A23Y], the protein stability index is 1.88. As to FLAAEQDIREEIRKVVQSLEQTER [A23E], the protein stability index came to 2.68. Take FLAAEQDIREEIRKVVQSLEQTGR [A23G]: the protein stability index worked out at 2.21. As for FLAAEQDIREEIRKVVQSLEQTHR [A23H], the protein stability index was found to be 2.11. In the case of FLAAEQDIREEIRKVVQSLEQTKR [A23K], the protein stability index came out at 1.75. Take FLAAEQDIREEIRKVVQSLEQTLR [A23L]: the protein stability index was found to be 2.34. On to FLAAEQDIREEIRKVVQSLEQTWR [A23W], for which the protein stability index amounted to 2.1. Turning to FLAAEQDIREEIRKVVQSLEQTIR [A23I], the protein stability index was 2.52.

For FLAAEQDIREEIRKVVQSLEQTCR [A23C], the protein stability index is 1.99. For FLAAEQDIREEIRKVVQSLEQYAR [T22Y], the protein stability index is 1.81. With FLAAEQDIREEIRKVVQSLEQWAR [T22W], the protein stability index amounted to 2.32.

Consider FLAAEQDIREEIRKVVQSLEQSAR [T22S], for which the protein stability index amounted to 1.98.

For the variant FLAAEQDIREEIRKVVQSLEQVAR [T22V], the protein stability index amounted to 2.55.

The variants in the next data set derive from B2. The data set is described as above. Conditions: c terminus: a fixed tail appended.
With IYKKYCLQSAAGKDAAKQIAWIKD [A6C], the protein stability index was 1.85. Take IYKKYGLQSAAGKDAAKQIAWIKD [A6G]: the protein stability index was determined as 2.88.

For IYKKYDLQSAAGKDAAKQIAWIKD [A6D], the protein stability index amounted to 2.32. On the same count and under the same terms, as for IYKKYILQSAAGKDAAKQIAWIKD [A6I], the figure is 2.12. Turning to IYKKYQLQSAAGKDAAKQIAWIKD [A6Q], the protein stability index is 2.85.

Turning to IYKKYLLQSAAGKDAAKQIAWIKD [A6L], the protein stability index was found to be 1.86. Consider IYKKYYLQSAAGKDAAKQIAWIKD [A6Y], for which the protein stability index turned out to be 1.52. For IYKKYMLQSAAGKDAAKQIAWIKD [A6M], the protein stability index came to 1.8. Still for that read-out and setting: as for IYKKYRLQSAAGKDAAKQIAWIKD [A6R], the figure is 2.55; as for IYKKYTLQSAAGKDAAKQIAWIKD [A6T], 2.39; as for IYKKYFLQSAAGKDAAKQIAWIKD [A6F], 2.49. In the case of IYKKYELQSAAGKDAAKQIAWIKD [A6E], the protein stability index was determined as 3.2. The same measure, in the same setting: as for IYKKYKLQSAAGKDAAKQIAWIKD [A6K], the figure is 2.18; as for IYKKYSLQSAAGKDAAKQIAWIKD [A6S], 2.49. As for IYKKYNLQSAAGKDAAKQIAWIKD [A6N], the protein stability index worked out at 2.18. For IYKKYWLQSAAGKDAAKQIAWIKD [A6W], the protein stability index was 2. With IYKKYPLQSAAGKDAAKQIAWIKD [A6P], the protein stability index is 3.02. On the same count and under the same terms, as for IYKKYHLQSAAGKDAAKQIAWIKD [A6H], the figure is 1.97. As to IYKKYVLQSAAGKDAAKQIAWIKD [A6V], the protein stability index amounted to 1.82. In the case of TYKKYALQSAAGKDAAKQIAWIKD [I1T], the protein stability index was 3.11. DYKKYALQSAAGKDAAKQIAWIKD [I1D]: the protein stability index came to 3.71. As for NYKKYALQSAAGKDAAKQIAWIKD [I1N], the protein stability index amounted to 2.41. LYKKYALQSAAGKDAAKQIAWIKD [I1L]: the protein stability index stood at 2.12. For GYKKYALQSAAGKDAAKQIAWIKD [I1G], the protein stability index was 2.81. For the variant EYKKYALQSAAGKDAAKQIAWIKD [I1E], the protein stability index came out at 3.79. On to FYKKYALQSAAGKDAAKQIAWIKD [I1F], for which the protein stability index worked out at 1.68. The same measure, in the same setting: as for PYKKYALQSAAGKDAAKQIAWIKD [I1P], the figure is 2.77; as for RYKKYALQSAAGKDAAKQIAWIKD [I1R], 2.5; as for QYKKYALQSAAGKDAAKQIAWIKD [I1Q], 3.23. As for WYKKYALQSAAGKDAAKQIAWIKD [I1W], the protein stability index was found to be 2.14.

Turning to AYKKYALQSAAGKDAAKQIAWIKD [I1A], the protein stability index was found to be 2.62. With VYKKYALQSAAGKDAAKQIAWIKD [I1V], the protein stability index stood at 2.61.

In the case of HYKKYALQSAAGKDAAKQIAWIKD [I1H], the protein stability index was determined as 3.36. Turning to MYKKYALQSAAGKDAAKQIAWIKD [I1M], the protein stability index was 2.08. For CYKKYALQSAAGKDAAKQIAWIKD [I1C], the protein stability index turned out to be 3.19. As to SYKKYALQSAAGKDAAKQIAWIKD [I1S], the protein stability index was 2.63.

As to KYKKYALQSAAGKDAAKQIAWIKD [I1K], the protein stability index stood at 2.75. YYKKYALQSAAGKDAAKQIAWIKD [I1Y]: the protein stability index was 2.1. With IYYKYALQSAAGKDAAKQIAWIKD [K3Y], the protein stability index stood at 2.19. IYSKYALQSAAGKDAAKQIAWIKD [K3S]: the protein stability index turned out to be 2.48. On the same count and under the same terms, for IYNKYALQSAAGKDAAKQIAWIKD [K3N] the value was 2.27; for IYGKYALQSAAGKDAAKQIAWIKD [K3G], 2.24; for IYRKYALQSAAGKDAAKQIAWIKD [K3R], 2.56. Turning to IYPKYALQSAAGKDAAKQIAWIKD [K3P], the protein stability index was determined as 2.65. Turning to IYHKYALQSAAGKDAAKQIAWIKD [K3H], the protein stability index came to 2.36.

Regarding IYAKYALQSAAGKDAAKQIAWIKD [K3A], the protein stability index is 2.26. As to IYVKYALQSAAGKDAAKQIAWIKD [K3V], the protein stability index worked out at 1.75.

On to IYTKYALQSAAGKDAAKQIAWIKD [K3T], for which the protein stability index turned out to be 2.15.

Regarding IYDKYALQSAAGKDAAKQIAWIKD [K3D], the protein stability index worked out at 3.43. As to IYQKYALQSAAGKDAAKQIAWIKD [K3Q], the protein stability index was determined as 2.33. For IYMKYALQSAAGKDAAKQIAWIKD [K3M], the protein stability index turned out to be 1.72.

Turning to IYEKYALQSAAGKDAAKQIAWIKD [K3E], the protein stability index is 2.88.
